The values that follow come from patent US20020131970A1 (Scripps Research, published 2002).

Test [1] concerns the target intercellular adhesion molecule 1 (ICAM-1), the RGD-independent fibrinogen receptor, native, on the surface of cells (HUVEC, JY lymphocytes) (human) (UniProt P05362). Briefly: 125I-D30 at 10 µg/ml on HUVEC monolayers.
The target in test [2] is recombinant ICAM-1 on the surface of transfected fibroblast-like (COS) cells of Example 4 (human) (UniProt P05362). Briefly: 125I-D30 on ICAM-1 transfected cells, with CaCl2, no inhibitor.
For test [3] the target is unchanged. Briefly: 125I-D30 on ICAM-1 transfected cells, with MnCl2, no inhibitor.
Test [4] has as its target T1, intercellular adhesion molecule 1 (ICAM-1), the RGD-independent fibrinogen receptor, native, on the surface … (human, UniProt P05362 28-532).
T1 construct: whole, on cells; assays on HUVEC monolayers are written against this molecule; also called ECR; endothelial cell receptor
Put plainly: adhesion of 51Cr-labelled ICAM-1+ JY lymphocytes to peptide-coated wells.

Test [5] concerns the target T1, intercellular adhesion molecule 1 …. Briefly: adhesion of 51Cr-labelled ICAM-1+ JY lymphocytes to wells coated with 1-100 µg/ml peptide. As to the method: Serum-free suspensions of JY lymphocytes were labeled with 0.5 mCi ⁵¹Cr (Na₂CrO₄, specific activity 487.4 mCi/mg, E. I., DuPont de Nemours, Wilmington, Del.) for 2 h at 37° C., with a final incorporation of 0.2-4 cpm/cell (Languino, et al., supra). Aliquots of ⁵¹Cr-labeled JY lymphocytes at 1×10⁶/ml were added to peptide-coated wells for 45 min at 37° C., washed, solubilized in 20% SDS, and radioactivity associated under the various conditions was determined in a scintillation beta-counter. The number of attached cells was quantitated by dividing the cpm harvested by the cpm/cell. Data are the mean ± S.D. of two independent experiments.
The specific binding of radiolabelled ICAM-1⁺ JY lymphocytes to increasing concentrations of γ3 was measured to characterize the ICAM-1 binding site. The number of attached cells is plotted on the Y-axis against peptide concentration (μg/ml) plotted on the X-axis.

Sequence of recombinant ICAM-1 on the surface of transfected fibroblast-like (COS) cells of Example 4 (human) (P05362 28-532): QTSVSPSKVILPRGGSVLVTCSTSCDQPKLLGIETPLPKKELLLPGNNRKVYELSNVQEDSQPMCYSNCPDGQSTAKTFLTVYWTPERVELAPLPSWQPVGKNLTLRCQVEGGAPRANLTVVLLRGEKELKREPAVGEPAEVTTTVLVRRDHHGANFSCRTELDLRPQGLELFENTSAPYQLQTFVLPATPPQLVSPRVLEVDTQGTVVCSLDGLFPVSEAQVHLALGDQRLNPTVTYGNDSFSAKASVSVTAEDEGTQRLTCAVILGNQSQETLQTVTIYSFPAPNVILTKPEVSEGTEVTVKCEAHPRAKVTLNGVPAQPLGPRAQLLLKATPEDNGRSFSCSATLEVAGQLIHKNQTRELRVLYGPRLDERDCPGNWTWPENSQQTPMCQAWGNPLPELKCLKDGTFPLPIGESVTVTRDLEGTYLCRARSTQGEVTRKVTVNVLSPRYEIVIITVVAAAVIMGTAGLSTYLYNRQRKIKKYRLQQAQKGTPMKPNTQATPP
T1 sequence (P05362 28-532): as above
Sequence of intercellular adhesion molecule 1 (ICAM-1), the RGD-independent fibrinogen receptor, native, on the surface of cells (HUVEC, JY lymphocytes) (human) (P05362 28-532): as above

With “D30 fragment of fibrinogen (30 kD plasmin digestion product of fragment D) (from UniProt P02671 155-225; P02675 164-250)”, the cpm bound came out at 60000 cpm in test [1], 3000 cpm in test [2] and 7500 cpm in test [3].

B1: polypeptide L10, fibrinogen γ chain residues 402-411 (peptide)
peptide: LGGAKQAGDV
notes: also called control peptide L10; irrelevant polypeptide L10
On to B1, for which, in test [4], the binding result is “no binding (tested: 1-100 µg/ml coating)”.

B2: polypeptide γ3, fibrinogen γ chain residues 117-133 (peptide)
peptide: NNQKIVNLKEKVAQLEA
notes: Coated on plates in the JY adhesion assays; also called γ3 polypeptide; unlabeled γ3 peptide
Regarding B2, the binding result in test [5] was “binds”.
